Data published in article PMC6415886.

Target: T1, INTP5 (biosimilar pegfilgrastim, N-terminally pegylated filgrastim produced by Intas) (human), P09919
T1 chain: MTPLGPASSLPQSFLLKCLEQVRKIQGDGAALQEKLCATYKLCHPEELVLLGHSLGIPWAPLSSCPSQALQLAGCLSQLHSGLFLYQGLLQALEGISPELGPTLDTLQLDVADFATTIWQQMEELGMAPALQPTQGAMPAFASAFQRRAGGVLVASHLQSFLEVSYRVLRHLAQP
Assay: SEC-MALS; vortexed (stress aggregated) INTP5; TSKgel G3000 SWXL, phosphate buffer with 100 mM NaCl and 10% ethanol, 25°C; 36 μg loaded
Conditions: remark: other sources report otherwise

stoichiometry N: 2
B1: INTP5 (biosimilar pegfilgrastim, N-terminally pegylated filgrastim produced by Intas), P09919-2 31-204 (ligand)
chain: T1 chain
modifications: here or on the partner: 20 kDa monomethoxypolyethylene glycol (mPEG) on the N-terminal amino group of Met1, secondary amine linkage; 20 kDa monomethoxypolyethylene glycol (mPEG) on the N-terminal amino group of Met1, secondary amine linkage
